Test results: PMC4866720, “A Genetic Screen Identifies a Requirement for Cysteine-Rich–Receptor-Like Kinases in Rice NH1 (OsNPR1)-Mediated Immunity”

Experiments:
[1] = target: T1, TGA2.1 (Oryza sativa (rice), UniProt Q7X993 1-334); assay: competition; EMSA competitor 5X, 20X, 100X against biotin-wt probe; EMSA with biotin probe, chemiluminescent detection; buffer, salt, pH and temperature not stated; conditions: protein: recombinant; chain copies: 2
T1 sequence: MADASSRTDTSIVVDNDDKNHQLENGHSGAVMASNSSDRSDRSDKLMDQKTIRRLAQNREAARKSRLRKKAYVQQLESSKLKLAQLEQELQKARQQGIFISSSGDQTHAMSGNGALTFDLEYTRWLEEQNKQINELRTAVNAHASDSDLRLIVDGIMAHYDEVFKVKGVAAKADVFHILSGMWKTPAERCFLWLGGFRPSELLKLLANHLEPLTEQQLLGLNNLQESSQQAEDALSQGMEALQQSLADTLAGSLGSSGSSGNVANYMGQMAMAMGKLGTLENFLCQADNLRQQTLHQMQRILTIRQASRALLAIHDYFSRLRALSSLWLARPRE

[2] = target: T1, TGA2.1; assay: EMSA; competed by unlabeled wt oligonucleotide (5X, 20X, 100X tested); EMSA with biotin probe, chemiluminescent detection; buffer, salt, pH and temperature not stated; conditions: protein: recombinant; chain copies: 2; label: 5'-biotin on top strand (probe)

B1: CRK10 promoter TGA site mt competitor (dsDNA)
DNA 1: CTCTTTGTGGTGTTGTTCTTC
DNA 2: GAAGAACAACACCACAAAGAG
binding result [1]: no binding

B2: CRK10 promoter TGA site wt probe (dsDNA)
DNA 1: CTCTTTGTGACGTTGTTCTTC
DNA 2: GAAGAACAACGTCACAAAGAG
binding result [2]: binds
